The target in this test is glycosylated myrosinase without GST-tag (produced in S. cerevisiae MGY70-myr) (broccoli). The test is described as follows: SEC; Sephacryl S-200 HR column 0.7 x 30 cm, 1 mL of purified myrosinase fraction (1 mg/mL) loaded, 0.3 mL/min, 0.2 M Tris-HCl pH 7.4; mass from a calibration curve with protein standards; self-association, monomer to dimer.

As for “glycosylated myrosinase without GST-tag (produced in S. cerevisiae MGY70-myr) (enzyme)”, the stoichiometry N was found to be 2.

The values are drawn from publication PMC8961631.
